Experimental data taken from article PMC9200065.

Target: T1, MBP-GLD-1(135-336) WT (C. elegans, UniProt Q17339 135-336)
T1 sequence: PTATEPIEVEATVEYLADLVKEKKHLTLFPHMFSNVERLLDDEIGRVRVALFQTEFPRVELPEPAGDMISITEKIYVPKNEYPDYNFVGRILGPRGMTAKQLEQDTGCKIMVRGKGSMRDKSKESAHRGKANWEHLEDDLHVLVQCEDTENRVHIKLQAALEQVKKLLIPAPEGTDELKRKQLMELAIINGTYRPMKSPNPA
Assay: EMSA

Q: Does UUUUUCUUAUUCUAGACUAAUAUUGUAAGCU (ssRNA) [glp-1 3'UTR fragment] bind?
A: binds
